Our source for the Kd values is publication PMC9544432 (Proteins, 2021).

Assay in all cases: SPR
For orientation: SPR reads the build-up and loss of mass on a sensor chip optically.

Assay [1] concerns the target T1, VEGFR2(D2–3) D257A/E261A (human).
T1 chain: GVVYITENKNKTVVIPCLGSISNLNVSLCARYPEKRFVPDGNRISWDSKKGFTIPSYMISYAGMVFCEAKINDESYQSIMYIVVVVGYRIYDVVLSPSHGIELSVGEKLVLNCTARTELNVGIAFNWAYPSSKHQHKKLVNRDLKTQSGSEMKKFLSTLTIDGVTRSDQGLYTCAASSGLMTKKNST

Assay [2] deals with T2, VEGFR2(D2–3), domains 2 and 3 of the extracellular portion of human VEGFR2, wild type (human).
T2 chain: T1 chain with A124D, A128E

For assay [3], the target named is T2, VEGFR2(D2–3), domains 2 and 3 of the ….

Residue numbers refer to the chain shown, from its start. Read-outs that look alike come from different tables or passages of the source.

B1: KD035 antigen-binding fragment (Fab) (Fab, V domains shown)
VH: EVQLLESGGGLVQPGGSLRLSCAASGFTFSWYVMGWVRQAPGKGLEWVSSIYPSGGATNYADSVKGRFTISRDNSKNTLYLQMNSLRAEDTAVYYCARGNYFDYWGQGTLVTVSS
VL: QSVLTQPPSVSVSPGQTASITCSGEKLGDEYASWYQQKPGQSPVLVIYQDNKRPSGIPERFSGSNSGNTATLTISGTQAMDEADYYCQAWDSSTLLFGGGTKLTVL
In the case of B1, the values for the dissociation constant Kd in assay [1], in assay [2] and in assay [3] were 35.8 nM, 1.3 nM and 0.22 nM, respectively.

The term Kd denotes the equilibrium constant for the complex coming apart. Higher therefore signals a looser complex.
